Test results as given in article PMC10444775 (Scientific Reports, 2023).

Target: SARS-CoV-2 PreS Spike ECD protein, biotinylated via a C-terminal Avi tag (SARS-CoV-2, Wuhan wild type, K986P | V987P | 682-685 RRAR to GSAS, biotin on the Avi tag)
Assay: SPR
Conditions: both partners purified

B1: 7A9 VHH (VHH)
VHH: QVQLVESGGGLVQAGGSLRLSCSASGGTASRSAMGWFRQAPGKEREFVAGISRRNSGSTYVADSYEDSVKGRFTISRDNAKNTIYLQMNSLKPEDTAVYYCAAEPTLGWYVPRRSVEYEYWGQGTQVTVSS
notes: also called VHH 7A9; 7A9 VHH monomer; source: ExpiCHO, transiently transfected, purified
Binder B1 has a Kd of 0.22 nM.
